B1: 抗新型冠状病毒的IgG抗体9B54 (antibody)
heavy: EVLLQQSGPELVNPGASVKIPCKASGYTFTDYNMGWVKQSHGKSLEWIGAIIPNNGGTIYNQKFKGKATLTVDESSSTAYMELRSLTSEDTAVYYCAREAYRDYDVKTWFAYWGQGTLVTVSAAKTTPPSVYPLAPGSAAQTNSMVTLGCLVKGYFPEPVTVTWNSGSLSSGVHTFPAVLQSDLYTLSSSVTVPSSTWPSETVTCNVAHPASSTKVDKKIVPRDCGCKPCICTVPEVSSVFIFPPKPKDVLTITLTPKVTCVVVDISKDDPEVQFSWFVDDVEVHTAQTQPREEQFNSTFRSVSELPIMHQDWLNGKEFKCRVNSAAFPAPIEKTISKTKGRPKAPQVYTIPPPKEQMAKDKVSLTCMITDFFPEDITVEWQWNGQPAENYKNTQPIMDTDGSYFVYSKLNVQKSNWEAGNTFTCSVLHEGLHNHHTEKSLSHSPGK
light: DLQMTQTTSSLSASLGDRVTISCSASQGIRNYLNWYQQKPDGTVKLLIYYTSTLHSGVPSRFSGSGSGTDYSLTISNLEPEDIATYFCQQYSKFPYTFGGGTKLEIKRADAAPTVSIFPPSSEQLTSGGASVVCFLNNFYPKDINVKWKIDGSERQNGVLNSWTDQDSKDSTYSMSSTLTLTKDEYERHNSYTCEATHKTSTSPIVKSFNRNEC
B2: 抗新型冠状病毒的类IgM抗体8C21 (antibody)
heavy: EVLLQQSGPELVNPGASVKIPCKASGYTFTDYNMGWVKQSHGKSLEWIGAIIPNNGGTIYNQKFKGKATLTVDESSSTAYMELRSLTSEDTAVYYCAREAYRDYDVKTWFAYWGQGTLVTVSAAKTTPPSVYPLAPGSAAQTNSMVTLGCLVKGYFPEPVTVTWNSGSLSSGVHTFPAVLQSDLYTLSSSVTVPSSTWPSETVTCNVAHPASSTKVDKKIVPRDCPAVAEMNPNVNVFVPPRDGFSGPAPRKSKLICEATNFTPKPITVSWLKDGKLVESGFTTDPVTIENKGSTPQTYKVISTLTISEIDWLNLNVYTCRVDHRGLTFLKNVSSTCAASPSTDILTFTIPPSFADIFLSKSANLTCLVSNLATYETLNISWASQSGEPLETKIKIMESHPNGTFSAKGVASVCVEDWNNRKEFVCTVTHRDLPSPQKKFISKPNEVHKHPPAVYLLPPAREQLNLRESATVTCLVKGFSPADISVQWLQRGQLLPQEKYVTSAPMPEPGAPGFYFTHSILTVTEEEWNSGETYTCVVGHEALPHLVTERTVDKSTGKPTLYNVSLIMSDTGGTCY
light: B1 light
notes: IgM-like antibody made by replacing part of the constant region of 9B54 with that of IgM

What was measured:
2019-nCoV N蛋白抗原 [1] = target: T1, 2019-nCoV N蛋白抗原 (2019-nCoV (新型冠状病毒), UniProt P0DTC9 1-419)
2019-nCoV N蛋白抗原 [2] = target: T1, 2019-nCoV N蛋白抗原; assay: AMC sensor, antibody captured at 10 μg/mL, N protein antigen in serial dilution in PBST

Row | Binder | OD450 (ref. 630 nm) of cell supernatant diluted 1000-fold (2019-nCoV N蛋白抗原 [1]) | Kd (2019-nCoV N蛋白抗原 [2]) [nM] | koff (2019-nCoV N蛋白抗原 [2]) [s⁻¹] | kon (2019-nCoV N蛋白抗原 [2]) [M⁻¹ s⁻¹]
1 | B1 | > 1 | 0.102 | 0.000113 | 1.11e+06
2 | B2 |  | 0.031 | 6.56e-05 | 2.11e+06
